Usually Kd stands for a measure of binding affinity in units of concentration. A lower Kd goes with higher affinity. For orientation: koff means the first-order rate constant of dissociation. Lower therefore signals slow dissociation. In general, kon refers to a measure of how fast the partners come together. Low values mean slower complex formation, high ones faster complex formation. As a reminder, the EC50 is the concentration giving half of the maximal effect. High values mean a need for much substance, low ones an effect from little substance.

From patent US20240124586A1 (WUXI BIOLOGICS IRELAND, published 2024) come the findings set out here.

Assay [1] addresses T1, FcγRIIa (H167) (UniProt P12318 36-218, limits assumed).
T1 sequence (looked up): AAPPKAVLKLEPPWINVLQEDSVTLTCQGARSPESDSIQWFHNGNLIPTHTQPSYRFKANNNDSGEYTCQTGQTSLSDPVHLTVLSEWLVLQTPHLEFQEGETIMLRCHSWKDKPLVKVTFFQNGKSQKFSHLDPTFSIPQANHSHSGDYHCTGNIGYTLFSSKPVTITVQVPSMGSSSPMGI
Briefly: SPR (Biacore), receptor captured on anti-his chip, steady state model. The method, then: (§1) Antibody binding affinity to FcγRs was detected using Biacore T200 (or Biacore 8K). Each receptor was captured on an anti-his antibody immobilized CM5 sensor chip (GE). Antibodies at different concentrations were injected over the sensor chip at a flow rate of 30 uL/min for an association phase of 60 s, followed by 60 s dissociation. The chip was then regenerated by 10 mM glycine (pH 1.5) after each binding cycle.
(§2) The sensorgrams of blank surface and buffer channel were subtracted from the test sensorgrams. The experimental data was fitted by 1:1 model using Langmiur analysis (for FcγRI) or steady state model (for other receptors). A molecular weight of 150 KDa was used to calculate the molar concentration of antibodies.
A general note: Surface plasmon resonance follows binding to a sensor surface in real time, without labels.

Assay [2] has as its target T2, FcγRIIb (UniProt P31994 46-217, limits assumed).
T2 sequence (looked up): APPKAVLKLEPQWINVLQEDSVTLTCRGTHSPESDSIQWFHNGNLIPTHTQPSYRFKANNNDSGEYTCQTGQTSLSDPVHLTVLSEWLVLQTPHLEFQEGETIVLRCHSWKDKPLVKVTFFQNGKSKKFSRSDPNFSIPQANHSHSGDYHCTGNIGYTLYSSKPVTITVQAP
The assay is described as above. The method, then: as §1, §2

Assay [3] deals with FcγRIIIa (F176) (UniProt P08637 17-208). Described as above. The protocol:
as §1, §2

For assay [4], the target named is FcγRIIIa (V176) (UniProt P08637 17-208). The assay is described as above. The protocol: as §1, §2
The target in assay [5] is T3, ECD of human PD-1 (SPR analyte) (human, UniProt Q15116 25-170).
T3 construct: extracellular domain; the SPR method only says ECD of PD-1; also called W305-hPro1.ECD.His
Briefly: SPR (Biacore T200), antibody captured by anti-human Fc, PD-1 ECD as analyte. The method, then: (§3) SPR technology was used to measure the on-rate constant (ka) and off-rate constant (kd) of the antibodies to ECD of CTLA-4 or PD-1. The affinity constant (KD) was consequently determined.
(§4) Biacore T200, Series S Sensor Chip CM5, Amine Coupling Kit, and 10×HBS-EP were purchased from GE Healthcare. Goat anti-human IgG Fc antibody was purchased from Jackson ImmunoResearch Lab (catalog number 109-005-098). In immobilization step, the activation buffer was prepared by mixing 400 mM EDC and 100 mM NHS immediately prior to injection. The CM5 sensor chip was activated for 420 s with the activation buffer. 30 μg/mL of goat anti-human IgG Fcγ antibody in 10 mM NaAc (pH 4.5) was then injected to Fc1-Fc4 channels for 200 s at a flow rate of 5 μL/min. The chip was deactivated by 1 M ethanolamine-HCl (GE). Then the antibodies were captured on the chip. Briefly, 4 μg/mL antibodies in running buffer (HBS-EP+) was injected individually to Fc3 channel for 30 s at a flow rate of […]. […] Regeneration buffer (10 mM Glycine pH 1.5) was injected at 10 μL min for 30 s following every dissociation phase.

Assay [6] deals with T3, ECD of human PD-1 (SPR analyte). Briefly: SPR (Biacore), antibody captured as ligand on an anti-human IgG Fc chip, PD-1 ECD as analyte. The protocol: as §3, §4
The target of assay [7] is T4, hCTLA4.ECD.hFc (human).
T4 construct: ECD fused to a human Fc; not biotinylated; also called Human CTLA-4: W316-hPro1.ECD.hFc (in house)
Nature of the assay: dual-binding ELISA (hCTLA4.ECD.hFc coated, detected with hPD-1-ECD.Biotin), sample kept 4 d in human serum at 37 C. The method, then: The antibodies were incubated in freshly isolated human serum at 37° C. On indicated time points, an aliquot of serum treated sample was removed from the incubator and snap frozen in liquid nitrogen, and then stored at −80° C. until ready for a dual-binding ELISA test. The frozen samples were quickly thawed immediately prior to the stability test. Briefly, plates were pre-coated with 0.5 μg/mL of hCTLA4.ECD.hFc (in house) at 4° C. overnight. After 1-hour blocking, the testing antibodies were added to the plates at various concentrations. The plates were incubated at ambient temperature for 1 hour. Following the incubation, the plates were washed three times with 300 μL per well of PBS containing 0.5% (v/v) Tween 20. Then 0.1 μg/ml hPD-1-ECD.Biotin was added to plates and the mixture was incubated for 1 hour. After washing the plates three times, Streptavidin-HRP (Lifetechnologies, #SNN1004) (1:20000 diluted) was added and incubated on the plates for 1 hour at room temperature. After washing six times with 300 μL per well of PBS containing 0.5% (v/v) Tween 20, 100 μL tetramethylbenzidine (TMB) substrate is added for the detection per well. The reaction was stopped after approximately 5 minutes by addition of 100 μL per well of 2 M HCl. The absorbance of the wells was measured at 450 nm with a multiwall plate reader (SpectraMax® M5e). […]

For assay [8], the target named is T5, human CTLA-4 on engineered 293F cells (W316-293F.hPro1.FL) (human, UniProt P16410 36-223).
T5 construct: whole, on cells; also called human CTLA-4 engineered cells; CTLA-4+ cells
Briefly: FACS binding to human CTLA-4 engineered cells. The protocol:
3.16-fold titrated Abs with 1% BSA DPBS from 200 nM to 0.002 nM were added to the cells. Plates were incubated at 4° C. for 1 hour. After wash, […] 1:150 diluted PE-labeled goat anti-human antibody (Jackson 109-115-098) was added to each well and the plates were incubated at 4° C. for 1 hour. The binding of the antibodies onto the cells was tested by flow cytometry and the mean fluorescence intensity (MFI) was analyzed by FlowJo.
For orientation: A flow cytometer gives signals particle by particle.

T3 sequence (Q15116 25-170): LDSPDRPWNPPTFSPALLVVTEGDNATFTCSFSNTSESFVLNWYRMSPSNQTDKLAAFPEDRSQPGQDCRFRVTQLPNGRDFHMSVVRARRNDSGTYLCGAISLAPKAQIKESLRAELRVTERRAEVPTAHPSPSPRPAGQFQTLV
T4 sequence (P16410 36-161): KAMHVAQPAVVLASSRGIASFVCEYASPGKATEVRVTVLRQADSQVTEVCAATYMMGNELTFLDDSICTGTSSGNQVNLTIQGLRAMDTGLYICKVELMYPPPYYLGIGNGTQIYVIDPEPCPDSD
T5 sequence (P16410 36-223, change not shown): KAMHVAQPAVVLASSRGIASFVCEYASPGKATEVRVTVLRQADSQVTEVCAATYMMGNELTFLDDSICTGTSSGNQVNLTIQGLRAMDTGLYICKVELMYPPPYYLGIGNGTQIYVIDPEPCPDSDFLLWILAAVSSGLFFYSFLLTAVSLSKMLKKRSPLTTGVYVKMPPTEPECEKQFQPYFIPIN
Sequence of FcγRIIIa (V176) (P08637 17-208 F176V limits assumed): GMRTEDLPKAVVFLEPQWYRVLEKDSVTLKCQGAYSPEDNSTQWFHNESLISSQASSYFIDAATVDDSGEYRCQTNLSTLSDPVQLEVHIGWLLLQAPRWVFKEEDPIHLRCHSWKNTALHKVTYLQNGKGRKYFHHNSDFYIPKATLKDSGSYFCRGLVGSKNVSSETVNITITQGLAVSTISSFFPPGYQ
Sequence of FcγRIIIa (F176) (P08637 17-208 limits assumed): as the sequence (P08637 17-208 F176V limits assumed) above, with V160F counted along it

B1: W3438-T3U4.E17-1.uIgG4.SP, bispecific anti-CD3 x CD19 (bispecific antibody)
heavy 1: QVQLVQSGAEVKKPGSSVKVSCKASGFAFTDYYIHWVRQAPGQGLEWMGWISPGNVNTKYNENFKGRVTITADKSTSTAYMELSSLRSEDTAVYYCARDGYSLYYFDYWGQGTLVTVLEDLKNVFPPEVAVFEPSEAEISHTQKATLVCLATGFYPDHVELSWWVNGKEVHSGVCTDPQPLKEQPALQDSRYALSSRLRVSATFWQNPRNHFRCQVQFYGLSENDEWTQDRAKPVTQIVSAEAWGRYGPPCPPCPAPEFLGGPSVFLFPPKPKDTLMISRTPEVTCVVVDVSQEDPEVQFNWYVDGVEVHNAKTKPREEQFNSTYRVVSVLTVLHQDWLNGKEYKCKVSNKGLPSSIEKTISKAKGQPREPQVYTLPPCQEEMTKNQVSLWCLVKGFYPSDIAVEWESNGQPENNYKTTPPVLDSDGSFFLYSRLTVDKSRWQEGNVFSCSVMHEALHNHYTQKSLSLSLGK
light 1: DIVMTQSPDSLAVSLGERATINCKSSQSLLNSRTRKNYLAWYQQKPGQPPKLLIYWASTRQSGVPDRFSGSGSGTDFTLTISSLQAEDVAVYYCTQSHTLRTFGGGTKVEIKPDIQNPDPAVYQLRDSKSSDKSVCLFTDFDSQTQVSQSKDSDVYITDKCVLDMRSMDFKSNSAVAWSQKSDFACANAFQNSIIPEDTFFPSPESS
heavy 2: QMQLVQSGPEVKKPGTSVKVSCKASGYAFTSYNMYWVRQARGQRLEWIGYIDPYNGDTTYNQKFKGRVTITRDMSTSTAYMELSSLRSEDTAVYYCLTTAYAMDYWGQGTLVTVSSASTKGPSVFPLAPCSRSTSESTAALGCLVKDYFPEPVTVSWNSGALTSGVHTFPAVLQSSGLYSLSSVVTVPSSSLGTKTYTCNVDHKPSNTKVDKRVESKYGPPCPPCPAPEFLGGPSVFLFPPKPKDTLMISRTPEVTCVVVDVSQEDPEVQFNWYVDGVEVHNAKTKPREEQFNSTYRVVSVLTVLHQDWLNGKEYKCKVSNKGLPSSIEKTISKAKGQPREPQVCTLPPSQEEMTKNQVSLSCAVKGFYPSDIAVEWESNGQPENNYKTTPPVLDSDGSFFLVSRLTVDKSRWQEGNVFSCSVMHEALHNHYTQKSLSLSLGK
light 2: DIQLTQSPSFLSASVGDRVTITCSASSTVNYMHWYQQKPGKAPKLLIYSTSNLASGVPSRFSGSGSGTEFTLTISSLQPEDFATYYCHQWSSYPYTFGQGTKLEIKRTVAAPSVFIFPPSDEQLKSGTASVVCLLNNFYPREAKVQWKVDNALQSGNSQESVTEQDSKDSTYSLSSTLTLSKADYEKHKVYACEVTHQGLSSPVTKSFNRGEC
notes: also called E17-Design_2-QQQQ (IgG4); E17-IgG4; copies: 1 + 1 + 1 + 1
For B1, the equilibrium dissociation constant (Kd) in assay [1] is 20500 nM; in assay [2], 24100 nM; in assay [3], 29300 nM; in assay [4], 14000 nM.

B2: W3248-U6T1.G25R-1.uIgG4.SP, bispecific anti-PD-1 x CTLA-4 (bispecific antibody)
heavy: EVQLLESGGGLVQPGGSLRLSCAASGFTFSSHAMSWVRQAPGKGLEWVSTITGGGGSIYYADSVKGRFTISRDNSKNTLYLQMNSLRAEDTAVYYCAKNRAGEGYFDYWGQGTLVTVSSASTKGPSVFPLAPCSRSTSESTAALGCLVKDYFPEPVTVSWNSGALTSGVHTFPAVLQSSGLYSLSSVVTVPSSSLGTKTYTCNVDHKPSNTKVDKRVGGGGSGGGGSQVQLVESGGGVVQPGRSLRLSCAASGFTFSSYTMHWVRQAPGKGLEWVTFISYDGNNKYYADSVKGRFTISRDNSKNTLYLQMNSLRAEDTAIYYCARTGWLGPFDYWGQGTLVTVLEDLKNVFPPEVAVFEPSEAEISHTQKATLVCLATGFYPDHVELSWWVNGKEVHSGVCTDPQPLKEQPALQDSRYALSSRLRVSATFWQNPRNHFRCQVQFYGLSENDEWTQDRAKPVTQIVSAEAWGRYGPPCPPCPAPEFLGGPSVFLFPPKPKDTLMISRTPEVTCVVVDVSQEDPEVQFNWYVDGVEVHNAKTKPREEQFNSTYRVVSVLTVLHQDWLNGKEYKCKVSNKGLPSSIEKTISKAKGQPREPQVYTLPPSQEEMTKNQVSLTCLVKGFYPSDIAVEWESNGQPENNYKTTPPVLDSDGSFFLYSRLTVDKSRWQEGNVFSCSVMHEALHNHYTQKSLSLSLG
light 1: SYELTQPLSVSVALGQTARITCGGDNIGNKDVHWYQQKPGQAPVLVIYRDSNRPSGIPEGFSGSNSGNTATLTISRAQAGDEADYYCQVWDSIWVFGGGTKLTVLGQPKAAPSVTLFPPSSEELQANKATLVCLISDFYPGAVTVAWKADSSPVKAGVETTTPSKQSNNKYAASSYLSLTPEQWKSHKSYSCQVTHEGSTVEKTVAPTECS
light 2: not shown
notes: IgG4 (S228P); also called U6T1.G25R.IgG4
B2 showed a Kd in assay [5] of 1.24 nM. Further, in assay [6], the koff was 0.000675 s⁻¹ and the kon came out at 542000 M⁻¹ s⁻¹. Also, the EC50 in assay [7] came to 0.141 nM.

B3: W3248-U6T5.G25-1.uIgG4.SP, bispecific anti-PD-1 x CTLA-4 (bispecific antibody)
heavy: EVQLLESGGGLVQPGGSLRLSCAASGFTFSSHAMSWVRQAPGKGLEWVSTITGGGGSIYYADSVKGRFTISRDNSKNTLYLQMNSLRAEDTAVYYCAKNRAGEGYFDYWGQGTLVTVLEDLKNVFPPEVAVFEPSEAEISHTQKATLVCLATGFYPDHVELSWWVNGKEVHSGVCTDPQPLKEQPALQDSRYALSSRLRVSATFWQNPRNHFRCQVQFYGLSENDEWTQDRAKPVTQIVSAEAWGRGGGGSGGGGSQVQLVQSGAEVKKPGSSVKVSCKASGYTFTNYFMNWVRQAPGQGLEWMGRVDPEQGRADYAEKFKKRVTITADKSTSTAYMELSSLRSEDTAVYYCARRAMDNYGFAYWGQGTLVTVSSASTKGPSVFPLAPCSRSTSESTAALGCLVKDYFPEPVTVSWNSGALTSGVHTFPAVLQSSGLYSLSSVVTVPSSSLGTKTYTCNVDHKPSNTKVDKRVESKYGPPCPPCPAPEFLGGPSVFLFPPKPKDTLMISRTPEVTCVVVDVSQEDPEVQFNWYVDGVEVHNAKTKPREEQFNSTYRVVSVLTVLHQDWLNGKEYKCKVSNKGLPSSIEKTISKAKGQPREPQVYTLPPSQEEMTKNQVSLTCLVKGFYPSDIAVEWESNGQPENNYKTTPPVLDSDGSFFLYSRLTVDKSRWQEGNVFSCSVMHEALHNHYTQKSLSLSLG
light 1: SYELTQPLSVSVALGQTARITCGGDNIGNKDVHWYQQKPGQAPVLVIYRDSNRPSGIPEGFSGSNSGNTATLTISRAQAGDEADYYCQVWDSIWVFGGGTKLTVLPDIQNPDPAVYQLRDSKSSDKSVCLFTDFDSQTQVSQSKDSDVYITDKCVLDMRSMDFKSNSAVAWSQKSDFACANAFQNSIIPEDTFFPSPESS
light 2: EIVLTQSPDFQSVTPKEKVTITCSANSALSYMYWYQQKPDQSPKLWVHGTSNLASGVPSRFSGSGSGTDFTLTINSLEAEDAATYYCHHWSNTQWTFGGGTKVEIKRTVAAPSVFIFPPSDEQLKSGTASVVCLLNNFYPREAKVQWKVDNALQSGNSQESVTEQDSKDSTYSLSSTLTLSKADYEKHKVYACEVTHQGLSSPVTKSFNRGEC
notes: IgG4 (S228P); also called WBP3248-U6T5.G25-1-uIgG4.SP; U6T5.G25.IgG4
In assay [5], B3 gave a Kd of 1.32 nM. Further, in assay [6], the koff was found to be 0.000844 s⁻¹ and the kon came to 642000 M⁻¹ s⁻¹. This molecule registered an EC50 in assay [7] of 0.0944 nM. Also, a half-maximal effect in assay [8] (EC50) was put at 3.17 nM.
